Source: patent US5858728, “Monoclonal antibody against LPS core” (Common Services Agency, dated 1999)

Target: bovine serum albumin (bovine, UniProt P02769)
Test: ELISA, plate coated with BSA as negative control (panel of purified LPS)
Procedure: Microtitre plates (flat bottomed; microtest III flexible assay plates: Becton Dickinson, Falcon 3912) are coated with purified LPS at 2 µg/ml in coating buffer (diethylenebarbituric acid-Na salt 30 mM. Na acetate 30 mM, NaCl 116 mM; pH 4.5). 50 µl aliquots of the LPS solution are distributed into each well. Unrelated protein (BSA, 2% in PBS pH 7.2/0.02% sodium azide) is used to determine non-specific binding. Plates are incubated for 1 hr at 37° C. and then overnight at 4° C. in a humidified chamber. Plates are washed 4 times with a washing solution i.e. phosphate buffered saline (PBS) pH 7.2, 0.05% vol/vol Tween 20, 0.02% sodium azide. Plates are blocked with 250 µl/well of 2% BSA in PBS/sodium azide 0.02% for 3 hrs at room temperature. Plates are washed again.
Antibody solutions are prepared in PBS/BSA 2%/sodium azide 0.02% at various dilutions, e.g. 1 µg/ml, 100 ng/ml, 10 ng/ml and 1 ng/ml. 50 µl aliquots of these solutions are distributed in the wells of the precoated plates. Incubation is carried out overnight at room temperature. […] After 1 hr, absorbance is read at 405 nm using a Titertek Multiskan ELISA reader (MCC/340, Flowlabs).

| Binder | binding result |
| --- | --- |
| murine monoclonal antibody WN1 222-5 (antibody, V domains shown) VH: EVKLVESGGGLVQPGGSLSLSCAASGFTFSDYYMTWVRQAPGKAPEWLALIRNKRNGDTAEYSASVKGRFTISRDYSRSILHLQMNALRTEDSATYYCVRQGRGYTLDYWGQGTSVTVSS VL: DIQMNQSPSSLSASLGDTISITCRASQNINIWLSWYQQKPGNVPKLLIYKASNLHTGVPSRFSGSGSGTDFTLIISSLQPEDIATYYCLQGQSYPRTFGGGTKLEIK | no binding (tested: 100 ng/ml) |
| murine monoclonal antibody WN1 58-9 (antibody, V domains shown) VH: EVKLVESGGGLVQPGGSLRLSCAASGFTFIDYYMTWVRHPPGEAPEWLALIRNYRNGDTAEYSASVRGRFTISRDDSQSILYLQMNALRAEDSATYYCVRQGRGYTLDYWGQGTSVTVSS VL: DIQMNQSPSSLSASLGDTITITCRARLNINIWLSWYQQKAGNIPKLLISKASNLHTGVPSRFSGSGSGTDFTLTISSLRPEDIATYYCLQGQSYPRTFGGGTKLEIK | no binding (tested: 100 ng/ml) |
